Measurements: paper PMC9960230

How the values were obtained:
Settings in all cases: domain or fragment
[1] = target: Recombinant human FcRn conjugated with biotin (human) (UniProt P55899); assay: SPR; heme (Fe3+)-exposed Fc, pH 5.4
[2] = target: Recombinant human FcRn conjugated with biotin (human) (UniProt P55899); assay: SPR; heme-ox-exposed Fc, pH 5.4
[3] = target: Recombinant human FcRn conjugated with biotin (human) (UniProt P55899); assay: SPR; native Fc, pH 5.4

Recombinant human FcRn conjugated with biotin (human), sequence (P55899 24-297): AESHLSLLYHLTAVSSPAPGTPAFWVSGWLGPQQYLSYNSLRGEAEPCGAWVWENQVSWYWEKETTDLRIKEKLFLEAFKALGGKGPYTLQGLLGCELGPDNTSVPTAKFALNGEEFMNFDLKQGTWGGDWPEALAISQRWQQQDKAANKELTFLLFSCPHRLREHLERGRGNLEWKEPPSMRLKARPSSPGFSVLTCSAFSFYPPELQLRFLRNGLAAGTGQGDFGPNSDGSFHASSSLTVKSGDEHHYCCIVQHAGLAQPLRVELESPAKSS

Fc-γ fragments obtained by papain digestion of polyclonal human IgG
Kd [1]: 7.7 nM
koff [1]: 0.004 s⁻¹
Kd [2]: 8 nM
koff [2]: 0.00367 s⁻¹
Kd [3]: 9.1 nM
koff [3]: 0.00415 s⁻¹
